Assays:
Experiment in all cases: cell_activity
[1] = test system: BsCas12a (Butyrivibrio sp.?); details: PAM TTTV
CMaCas12a = details: PAM TTTV; rice protoplasts
MAD7 = details: PAM TTTV
[2] = test system: TsCas12a (Thiomicrospira sp.?); details: PAM TTTV; stable transgenic rice
BoCas12a = details: PAM TTTV; rice protoplasts
Lb5Cas12a = details: PAM TTTV; rice protoplasts
Mb2Cas12a = test system: Mb2Cas12a
MbCas12a = details: PAM TTTV; rice protoplasts
MlCas12a = details: PAM TTTV; rice protoplasts

Question: For “AAGAAGGGUUAUGGCCAAUGCUU / TCCATTTGTTTGAAGAAGGGTTATGGCCAATGCTTGCCC / GGGCAAGCATTGGCCATAACCCTTCTTCAAACAAATGGA [crRNA OsEPFL9 spacer 23 nt ; OsEPFL9-TTTV target]”, which activity ([1]; stable transgenic rice) is on record?
Answer: The activity was over 80 % editing.

Question: And the activity (CMaCas12a)?
Answer: Its activity is 5.1 % editing.

Question: What about the activity (MAD7; stable transgenic rice) of the same sequence?
Answer: Its activity is over 80 % editing.

Question: What about the activity [2] of the same sequence?
Answer: Its activity is over 80 % editing.

Question: What does the source list for “CAGAAAGAGAAGGAGGCACAGAU / CTTTTCCAGAAAGAGAAGGAGGCACAGATCTTGCCGT / ACGGCAAGATCTGTGCCTCCTTCTCTTTCTGGAAAAG [crRNA OsDEP1-TTTV spacer (inferred) ; OsDEP1-TTTV target]”?
Answer: activity (BoCas12a): 7.8 % editing; activity ([1]; rice protoplasts): 20.1 % editing; activity (CMaCas12a): 2.7 % editing; activity (Lb5Cas12a): 28.8 % editing; activity (MAD7; rice protoplasts): 34.1 % editing; activity (Mb2Cas12a; PAM TTTV, rice protoplasts): 19.7 % editing; activity (MbCas12a): 7.2 % editing; activity (MlCas12a): 13.9 % editing

Question: Which activity (Mb2Cas12a; PAM TTV, 22 C) does the source give for “CUCAAGGUGAGCGCCCCGCGGCG / GTTCCTCAAGGTGAGCGCCCCGCGGCGGCGGCGGCTG / CAGCCGCCGCCGCCGCGGGGCGCTCACCTTGAGGAAC [crRNA OsDEP1-TTV spacer (inferred) ; OsDEP1-TTV target]” here?
Answer: Its activity is 6.4 % indels.

Question: For “CUGGGCUCGGCGUCCUCGACGUC / GAGTTGCTGGGCTCGGCGTCCTCGACGTCGTCCTCGCCG / CGGCGAGGACGACGTCGAGGACGCCGAGCCCAGCAACTC [crRNA OsR005-TTV spacer (inferred) ; OsR005-TTV target]”, which activity (Mb2Cas12a; PAM TTV, 22 C) is on record?
Answer: The activity was 8.3 % indels.

From patent US20210130838
